The results in this text go back to patent US20180148514A1, “MULTIVALENT MEDITOPES, MEDITOPE-BINDING ANTIBODIES AND USES THEREOF” (City of Hope, priority 2014, published 2018).

Experiment [1] concerns Meditope-enabled trastuzumab version 2. Kind of experiment: SPR multivalent meditope valency test at varying ligand densities. It is filed as binding. Conditions: for Ka / t1/2: 37° C., 1:1 fit. How it is done: The low density channel was approximately 150 RU (FIG. 19A), the medium density channel was approximately 750 RU (FIG. 19B), and the high density channel was approximately 1500 RU (FIG. 19C).
Trivalent meditope (TVM) (SEQ ID NO: 231) concentrations were prepared as a 5-fold dilution series from 1 μM to 2.6 pM in HBS-EP+. Samples were flowed over all four channels at 30 μL/min at 37° C. Sensograms were double referenced to the blank immobilization on channel 1 and with two “0” concentration buffer blanks.
A control meditope peptide was run at the beginning and end of the experiment to assess for loss of surface activity during the experiment. Less than 5% decrease in signal was observed on the most dense ligand surface after the experiment was completed. Regeneration buffer for the experiment was a pulse of 10 mM glycine pH 3.0 with variable time from 2-10 seconds followed by a 30 sec pulse of running buffer HBS-EP+.
Data fits were performed using BiaEvaluation software with the 1:1 fit model. Data fit quality to the 1:1 binding model decreased as the surface density of ligand increased and the off rate was not well determined due to lack of curvature.

The next experiment relates to SKBR3 cells. Briefly: Microscopy of SKBR3 cells with labeled TVM and trastuzumab variants. It is filed as cell-based. How it is done:
TVM was labeled with NHS-Alexa Fluor 647 following the manufacturer's protocol (Thermo Fisher Scientific, Waltham Mass.) 0.1 M sodium bicarbonate buffer pH 8.0 at room temperature for 1 hour).

Experiment [2] relates to meditope enabled antibody trastuzumab. Briefly: SPR analysis of BVM and TVM gel filtration fractions. It is filed as binding. The following applies: BVM fractions 26-29, TVM fractions 21-23.
The test system of another experiment is Raji-B cells. Kind of experiment: pHrodo-labeled CD-19 antibody internalization, fluorescence microscopy, Raji-B. It is filed as cell-based, human. The following applies: 100 nM antibody with or without 100 nM meditope-Fc, 30 minutes, 37° C., n=8. How it is done:
Raji-B cells, a human B lymphocyte cell line derived from human lymphoblast, CCL-86™, ATCC®, were stained for fluorescence microscopy to determine receptor-mediated endocytosis rates of the pHrodo™-labeled CD-19 antibody. Cells were stained in Nunc® Lab-Tek® II chambered 8 well coverglass polystyrene chambers (0.7 cm^2/well). Cells were stained using either 100 nM antibody and 100 nM of Alexa Fluor 488®-labeled meditope-Fc (SEQ ID NO: 236) or 100 nM antibody alone (control) for 30 minutes at 37° C. in serum-free media. Nuclei of Raji-B cells were also stained with Hoechst 33342 (2 μg/mL final concentration for 20 minutes).
Cells were imaged with a confocal microscope using appropriate wavelength settings for pHrodo™-labeled antibodies, Alexa Fluor 488-labeled meditope-Fc, and Hoechst 33342-labeled nuclei. Z sectioning permitted visualization of the internalized materials and all quantitative measurements were taken at the same defined section height. Cells were visualized and quantified at each time point for each visualization event. Total fluorescence of each stain inside and outside of imaged cells were calculated using ImageJ analysis at a single time point of 30 minutes. Total staining for MOR-208 alone was calculated as 1797.71±194.97 (n=8). Total staining for MOR-208 bound to meditope-Fc was calculated as 4430.43±632.59 (n=8).

Where [3] appears, read: most densely immobilized surface.

B1: TVM: trivalent meditope, peptide sequence of SEQ ID NO: 231, expressed in E. coli (protein)
chain: MGGGSWSHPQFEKGGGSGGGMSDSEVNQEAKPEVKPEVKPETHINLKVSDGSSEIFFKIKKTTPLRRLMEAFAKRQGKEMDSLRFLYDGIRIQADQTPEDLDMEDNDIIEAHREQIGGGGSAAPSSAPSPSAPCQFDLSTRRLSCGGASPAASPSAPSSPAPKAPSAAPSSAPSPSAPGGCQFDLSTRRLSCGGASPAASPSAPSSPAPKAPSAAPSSAPSPSAPGGCQFDLSTRRLSCGGSPSAPSSPSSPKLPETG
modifications: (1)..(258) His6-SMT-Trivalent meditope (TVM) sequence (Amino Acid)
As to B1, the figures for the Ka in experiment [1] (density 150 RU), in experiment [1] (density 750 RU) and in experiment [1] (density 1500 RU) were 8700 M⁻¹ s⁻¹, 10000 M⁻¹ s⁻¹ and 9800 M⁻¹ s⁻¹, respectively. In addition, the t1/2 stood at 0.4 h in experiment [1] (density 150 RU), 1.3 h in experiment [1] (density 750 RU) and 2.4 h in experiment [1] (density 1500 RU). Besides, in experiment [1] (setting [3]), the half-life was determined as 2.42 h. For the same molecule, the “improvement of half-life over monovalent meditope” value in experiment [1] (setting [3]) is listed as more than 30 fold. For the same molecule, the “cell morphology and attachment” value was “rounded morphology and frequently detached from the surface of the coverslides” in the experiment on SKBR3 cells (labeled TVM with meditope enabled antibody trastuzumab); “not observed” in the experiment on SKBR3 cells (labeled TVM with parental trastuzumab). Also, in experiment [2], the “binding (SPR)” value was “bound meditope enabled antibody trastuzumab antibodies”.

B2: MOR-208: Meditope-enabled MOR208 (CD-19 antibody), light chain SEQ ID NO: 226, heavy chain SEQ ID NO: 227, pHrodo labeled (protein)
light: DIVMTQSPAILSLSPGERATLSCRSSKSLQNVNGNTYLYWFQQKTNGSPRLLIYRMSNLNSGVPDRFSGSGSGTEFTLTISSLEPEDEADYYCIQHLEYPITFGAGTKLEIKRTVAAPSVFIFPPSDEQLKSGTASVVCLLNNFYPREAKVQWKVDNALQSGNSQESVTEQDSKDSTYSLSSTLTLSKADYEKHKVYACEVTHQGLSSPVTKSFNRGEC
heavy: EVQLVESGGGLVKPGGSLKLSCAASGYTFTSYVMHWVRQSPGKGLEWIGYINPYNDGTKYNEKFQGRVTISSDKSISTAYMELSSLRSEDTAIYYCARGTYYYGTRVFDYWGQGTLVTVSSASTKGPSVFPLAPSSKSTSGGTAALGCLVKDYFPEPVTVSWNSGALTSGVHTFPAVLQSSGLYSLSSVVTVPSSSLGTQTYICNVNHKPSNTKVDKKVEPKSCDKTHTCPPCPAPELLGGPDVFLFPPKPKDTLMISRTPEVTCVVVDVSHEDPEVQFNWYVDGVEVHNAKTKPREEQFNSTFRVVSVLTVVHQDWLNGKEYKCKVSNKALPAPEEKTISKTKGQPREPQVYTLPPSREEMTKNQVSLTCLVKGFYPSDIAVEWESNGQPENNYKTTPPMLDSDGSFFLYSKLTVDKSRWQQGNVFSCSVMHEALHNHYTQKSLSLSPGK
modifications: pHrodo label; (1)..(219) MOR-208 Light chain; (1)..(451) MOR-208 Heavy chain
For the molecule B2, the “total staining (total fluorescence, ImageJ)” value in the experiment on Raji-B cells stood at 1797.71±194.97.

B3: BVM: bivalent meditope, peptide sequence of SEQ ID NO: 229 (protein)
chain: MGSSHHHHHHSSGLVPRGSHMGGGSWSHPQFEKGGGSGGGMSDSEVNQEAKPEVKPEVKPETHINLKVSDGSSEIFFKIKKTTPLRRLMEAFAKRQGKEMDSLRFLYDGIRIQADQTPEDLDMEDNDIIEAHREQIGGGGSAAPSSAPSPSAPCQFDLSTRRLSCGGASPAASPSAPSSPAPKAPSAAPSSAPSPSAPGGCQFDLSTRRLSCGGASPAASPSAPSSPAPK
modifications: (1)..(230) His6-SMT3-Bivalent meditope (BVM) sequence (Amino Acid)
Regarding B3, in experiment [2], the “binding (SPR)” value was “bound meditope enabled antibody trastuzumab antibodies”.
